Laboratory results reported in patent publication US20040048327.

Legend:
Ac-AHph-trans-EP-COOEt = biological target: T1, Ac-AHph-trans-EP-COOEt
T1 chain: X

[1] = biological target: T2, Cbz-Phe-ALeu-trans-EP-COOEt
T2 chain: FL

[2] = biological target: T3, Cbz-Leu-ALeu-(2S, 3S)-EP-COOEt
T3 chain: LL

[3] = biological target: T4, Cbz-Ala-Ala-NHN(CH2COOEt)-trans-EP-COOEt
T4 chain: AAD

[4] = biological target: T5, Cbz-Leu-Phe-AGln-trans-EP-COOEt
T5 chain: LFQ

[5] = biological target: T6, Cbz-Phe-ALeu-trans-EP-CH2CH2Ph
T6 chain: FL

[6] = biological target: T7, Boc-Nle-AHph-trans-EP-COOEt
T7 chain: XX

[7] = biological target: T8, Cbz-Leu-ALeu-trans-EP-COOEt
T8 chain: LL

[8] = biological target: T9, Cbz-Leu-Glu-Thr-AAsp-(2R, 3R)-EP-COOEt
T9 chain: LETD

[9] = biological target: T10, Cbz-Leu-AHph-(2R, 3R)-EP-COOEt
T10 chain: LX

[10] = biological target: T11, Cbz-Leu-AHph-cis-EP-COOEt
T11 chain: LX

[11] = biological target: T12, PhPr-Val-Ala-AAsp-trans-EP-CH2CH2Ph
T12 chain: VAD

[12] = biological target: T13, Ac-Leu-ALeu-trans-EP-COOEt
T13 chain: LL

[13] = biological target: T14, Cbz-Phe-APhe-trans-EP-CH2CH2Ph
T14 chain: FF

[14] = biological target: T15, Cbz-Asp-Glu-Val-AAsp-(2S, 3S)-EP-COOEt (not fully specified)
T15 chain: DEVD

[15] = biological target: T16, Cbz-Ala-Ala-AAsn-trans-EP-COOEt
T16 chain: AAN

Cbz-AHph-trans-EP-COOEt = biological target: T17, Cbz-AHph-trans-EP-COOEt
T17 chain: X

[16] = biological target: T18, Boc-Nle-AHph-trans-EP-CH2CH2Ph
T18 chain: XX

[17] = biological target: T19, Cbz-Leu-Leu-ALeu-(2S, 3S)-EP-COOEt
T19 chain: LLL

[18] = biological target: T20, Cbz-Ala-Ala-AAsn-(2R, 3R)-EP-COOEt
T20 chain: AAN

[19] = biological target: T21, Cbz-Leu-ALeu-(2R, 3R)-EP-COOEt
T21 chain: LL

[20] = biological target: T22, Boc-Nva-AHph-trans-EP-COOEt
T22 chain: XX

[21] = biological target: T23, Suc-Np2-ALeu-trans-EP-COOEt
T23 chain: XL

Cbz-ALeu-trans-EP-COOEt = biological target: T24, Cbz-ALeu-trans-EP-COOEt
T24 chain: L

[22] = biological target: T25, Boc-Abu-AHph-trans-EP-CH2CH2Ph
T25 chain: XX

[23] = biological target: T26, Cbz-Asp-Glu-Val-AAsp-(2R, 3R)-EP-COOEt (not fully specified)
T26 chain: DEVD

[24] = biological target: T27, Ac-Leu-AHph-trans-EP-COOEt
T27 chain: LX

[25] = biological target: T28, Cbz-Leu-Leu-ALeu-trans-EP-COOEt
T28 chain: LLL

[26] = biological target: T29, Cbz-Leu-ALeu-cis-EP-COOEt
T29 chain: LL

[27] = biological target: T30, Cbz-Ala-Ala-AAsn-cis-EP-COOEt
T30 chain: AAN

[28] = biological target: T31, PhPr-Val-Ala-AAsp-trans-EP-COOCH2Ph
T31 chain: VAD

[29] = biological target: T32, Cbz-Leu-AAbu-trans-EP-COOEt
T32 chain: LX

[30] = biological target: T33, Cbz-Leu-Leu-ALeu-(2S, 3S)-EP-COOH
T33 chain: LLL

[31] = biological target: T34, Boc-Np2-ALeu-trans-EP-COOEt
T34 chain: XL

[32] = biological target: T35, Cbz-Ala-Ala-AAsn-(2S, 3S)-EP-COOEt
T35 chain: AAN

[33] = biological target: T36, Cbz-Leu-AHph-(2S, 3S)-EP-COOEt
T36 chain: LX

[34] = biological target: T37, Cbz-Leu-AAbu-trans-EP-COOH
T37 chain: LX

[35] = biological target: T38, Cbz-Leu-Glu-Thr-AAsp-(2S, 3S)-EP-COOEt
T38 chain: LETD

[36] = biological target: T39, Cbz-Leu-Leu-ALeu-(2R, 3R)-EP-COOEt
T39 chain: LLL

Cbz-APhe-trans-EP-COOEt = biological target: T40, Cbz-APhe-trans-EP-COOEt
T40 chain: F

[37] = biological target: T41, Cbz-APhe-trans-EP-CH2CH2Ph
T41 chain: F

B1: papain (protein)
chain: IPEYVDWRQKGAVTPVKNQGSCGSCWAFSAVVTIEGIIKIRTGNLNEYSEQELLDCDRRSYGCNGGYPWSALQLVAQYGIHYRNTYPYEGVQRYCRSREKGPYAAKTDGVRQVQPYNEGALLYSIANQPVSVVLEAAGKDFQLYRGGIFVGPCGNKVDHAVAAVGYGPNYILIKNSWGTGWGENGYIRIKRGTGNSYGVCGLYTSSFYPVKN
Question: Which results are given for B1?
Answer: kobs/[I] (Ac-AHph-trans-EP-COOEt): 26.9 M⁻¹ s⁻¹; kobs/[I] [1]: 0.91 M⁻¹ s⁻¹; kobs/[I] [2]: 10.5 M⁻¹ s⁻¹; kobs/[I] [3]: 8.17 M⁻¹ s⁻¹; kobs/[I] [4]: 0.9 M⁻¹ s⁻¹; kobs/[I] [5]: 0.7 M⁻¹ s⁻¹; kobs/[I] [6]: 1.6 M⁻¹ s⁻¹; kobs/[I] [7]: 6.37 M⁻¹ s⁻¹; kobs/[I] [8]: 0.24 M⁻¹ s⁻¹; kobs/[I] [9]: 2.16 M⁻¹ s⁻¹; kobs/[I] [10]: 1.03 M⁻¹ s⁻¹; kobs/[I] [11]: NI; kobs/[I] [12]: 2.09 M⁻¹ s⁻¹; kobs/[I] [13]: 0.5 M⁻¹ s⁻¹; kobs/[I] [14]: NI; kobs/[I] [15]: 0.9 M⁻¹ s⁻¹; kobs/[I] (Cbz-AHph-trans-EP-COOEt): 18.8 M⁻¹ s⁻¹; kobs/[I] [16]: 0.5 M⁻¹ s⁻¹; kobs/[I] [17]: 10.5 M⁻¹ s⁻¹; kobs/[I] [18]: 3 M⁻¹ s⁻¹; kobs/[I] [19]: 6.7 M⁻¹ s⁻¹; kobs/[I] [20]: 1.4 M⁻¹ s⁻¹; kobs/[I] [21]: 1.39 M⁻¹ s⁻¹; kobs/[I] (Cbz-ALeu-trans-EP-COOEt): 16.1 M⁻¹ s⁻¹; kobs/[I] [22]: 0.2 M⁻¹ s⁻¹; kobs/[I] [23]: NI; kobs/[I] [24]: 1.9 M⁻¹ s⁻¹; kobs/[I] [25]: 34.8 M⁻¹ s⁻¹; kobs/[I] [26]: 0.38 M⁻¹ s⁻¹; kobs/[I] [27]: NI; kobs/[I] [28]: < 10 M⁻¹ s⁻¹; kobs/[I] [29]: 4.94 M⁻¹ s⁻¹; kobs/[I] [30]: 6.93 M⁻¹ s⁻¹; kobs/[I] [31]: 3.9 M⁻¹ s⁻¹; kobs/[I] [32]: 4 M⁻¹ s⁻¹; kobs/[I] [33]: 5.68 M⁻¹ s⁻¹; kobs/[I] [34]: 1.47 M⁻¹ s⁻¹; kobs/[I] [35]: 0.47 M⁻¹ s⁻¹; kobs/[I] [36]: 20.6 M⁻¹ s⁻¹; kobs/[I] (Cbz-APhe-trans-EP-COOEt): 8.5 M⁻¹ s⁻¹; kobs/[I] [37]: 0.92 M⁻¹ s⁻¹
